Measurements as given in the DeepSol protein solubility set.

experiment: soluble on expression in E. coli; label from the status in PepcDB or PDB records

Row | Sequence | soluble on expression in E. coli
1 | MPAFVERTPSAEVPRQVLRPHAEHAFAAELASLAGQDDRPRPARWRLSPWAVATYLLGGTLPDGTVITPKYVGPRRVVEVAVTTLATDRALLLLGVPGTAKTWVSEHLAAAVSGDSTLLVQGTAGTPEEAIRYGWNYARLLAHGPGRDALVPSPVMRAMTEGATVRVEELTRIPADVQDSLITLLSEKTLPIPELGEEVQAVRGFNLIATANDRDRGVNDLSSALRRRFNTVVLPLPESAEAEVDIVTRRVDQIGRSLDLPSAPDGTDEIRRVVTVFRELRDGLTSDGRTKVKSPSGPLSTAEAISVVTGGLALCAHFGDGVLRAGDLAAGVLGAVVRDPGTDRVVWQEYLETVVREREGWQDFYRACREVTALEHHHHHH | not soluble
2 | MSAEFNQLVAQFEQFQAKLHRVDQQFADLGQMQRELTELEVVATSADREVTVVAGPSGTIKDIRLTDQAMHRPPQALATALMATLRQAVAESARRQAGIVENALGDEMGLTEQVLETQAQLFGVTPQELRAMTEQAPGQPPAAPPPAPPAAGPGPQTPLAPPARPTPPRRPAPAEEADDFSQRGFLRDDDQQPRRPQADPGQKRDDRFLNLYDDEGR | not soluble
3 | MRGSHHHHHHGSRVMVIGGDGYCGWATALHLSKKNYEVCIVDNLVRRLFDHQLGLESLTPIASIHDRISRWKALTGKSIELYVGDICDFEFLAESFKSFEPDSVVHFGEQRSAPYSMIDRSRAVYTQHNNVIGTLNVLFAIKEFGEECHLVKLGAMGEYGTPNIDIEEGYITITHNGRTDTLPYPKQASSFYHLSKVHDSHNIAFTCKAWGIRATDLNQGVVYGVKTDETEMHEELRNRLDYDAVFGTALNRFCVQAAVGHPLTVYGKGGQTRGYLDIRDTVQCVEIAIANPAKAGEFRVFNQFTEQFSVNELASLVTKAGSKLGLDVKKMTVPNPRVEAEEHYYNAKHTKLMELGLEPHYLSDSLLDSLLNFAVQFKDRVDTKQIMPSVSWKKIGVKTKSMTT | soluble
4 | MAHHHHHHMYLLQCEKKKKQKGKGQIGLTQVEYIGKPLIGGDFTLINHDGKVVTNEDFKKKFCLIYFGFTYCPDICPQELEKQTIVIERIVKKYGDVITPVFISVDPNRDTLAQVKHYCSSFSDRLVGLTGTKEQIRRVAKLFRVYYNEHVVGEEQTEEQTEKQKERQTDTQTEAQSGDPPRAPSYNYLIDHSIIHYLLDADGKFVDFFGKNCTTSEMVERISHYVDLHLQ | not soluble
5 | MSWWCCIPKSKKGENPYSHGVSGIPPEKNIRLFSYSELRSATENFNRSNKIGRGGFGTVYKGTIRNGRDVAVKVLSAESRQGVREFLTEIDVITNVKHPNLVELIGCCVEGNNRILVYEYLENSSLDRALLGSNSEPANFTWSIRSAICIGIAKGLAYLHEEIASPIVHRDIKASNILLDKLYNPKIGDFGLAKLFPDNITHISTRVAGTTGYLAPEYAWHGQLTKRADIYSFGVLVLEIVSGKSSSRSLLADDKILLEKAWELHEVGKLKELVDSEMGDYPEEEVLRYIKTALFCTQAAAARRPSMPQVVTMLSKPIRINERELTAPGYIHDYNGTVSKATNSSNSRFKHSASDTSDMFSTVVPPTVSEISPR | not soluble
6 | MIAAYENSKWEPVKWENDMHCAVKIQDKNQWRRGQIIRMVTDTLVEVLLYDVGVELVVNVDCLRKLEENLKTMGRLSL | soluble
7 | MCLEPIIAPISSELLEQELTADRFLRMTNKAGNEIYVFTAEEAPHCMKEVGRLREEAFRHYGGGTGKAIDIDEFDTMPGSYKQLIVWDPQNKAILGGYRFIYGRDVAFDTDGKPLLATAEMFRFSDAFLHDYLPYTVELGRSFVSLQYQSTRMGTKAIFVLDN | not soluble
8 | ETELEQKAIDYDELERLNSTIVSNLNSGLITVTGDGRIRVFNRYAEALTGIGLAEAYDCHLFDVLPGFRVYADVLANVKRGEFEFIAKMGRKLTIGFSSVPLMLKDSDAAGILLNFQDVT | not soluble
9 | MIKFNIRGENVEVTDAIRAYVEDKIGKLDKYFNDGHEVTAYVNLKVYSEKRAKVEVTLPAKNVTLRAEDTSQDMYSSIDFVEEKLERQIRKYKTRMNRKPRNAVPTGQAFGDEFAPLEKADEVAEDHVDIVRTKHVALKPMDAEEAVLQMDMLGHDFYVFTDADSNGTHVVYRRTDGRYGLIETELEHHHHHH | soluble
10 | MLKFFAALLFAVATMAQAQDNTLHTDLPLDYLAQANVETPDRPLVIFIHGYGSNAADLFGLKEHLPAGFNYLSVQAPVELQADSYKWFTQKKGGTDYDGVTEDLKSSGKRLTDFITQATEKFRTQPGKVFLVGFSQGAMMSYEVALRQPTLVGGFAALSGRLLPVVKSEVNASDDLKALKVFIGHGVQDRQVAYASGPQAEATLKSLGLTPQFHGYEGLGHSINEAEVVDLANWLQQSSR | not soluble
11 | MYIVIMGAGRIGTLVARMLESEGHDVAIIEMNRERAREISEYISGLVIEGDATDQKVLENANIKNANAFAALTGKDDANILACILAKHLNPNIMTILRITDPGKKKIFEDVKELKTYFDIVVSPEDIAANYIFRTLVTPGFNRVLLPREGAEIIQFQIDEDCEVAGKPVKELNLPKDSLIIAVYDEKGNLTIPSGDTIIPKKGQVIIFAKNSALQEVKKIMEKKKKEQ | soluble
12 | MGSDKIHHHHHHMCNISHSQVQYLATKGDGDLPAGTAAGTGRTRTFTLEEARIWVQKVSDIYQTPLVTRLKEPDGKIIITAQLKGGSAKTTTTMCLAQGLSLRGRKVLVLDLDPQASLSELCGLYAEKDVTPEDTVLPYIYDQEIEGGLEARVQSTYWDGIDVIPAHTELIGAEFHLPAMQKMRPGFRFWTVLRQGLEPLRKKYDYILMDTSPSLSYLNLNALMAADAMVMPMVPENLDFISSLSFWRLFSDVSKSFIKYEKDKKYDFVSLILSRVDYGRNSSAPIVRAWAQSAYENWLHSIEVPASSVMSTGALAFSTVFDISSTHSASKSLQRVRQPLIDYCRWVDEIYSEKWRSAQ | not soluble
13 | MEFYNSTNEIPEEMLKGIDLTYPQLTYLPETGILYDNTYNEKTVPIISGGGSGHEPAHVGYVGSGMLAAAVTGPLFIPPKSKNILKAIRQVNSGKGVFVIIKNFEADLKEFNEAIKEARTEGIDVRYIVSHDDISVNAYNFHKRHRGVAGTILLHKILGAFAKEGGSIDEIEQLALSLSPEIYTLGVALAPVHFPHQKTSFVLAEDEVSFGIGIHGEPGYRVEKFEGSERIAIELVNKLKAEINWQKKANKNYILLVNGLGSTTLMELYSFQYDVMRLLELEGLSVKFCKVGNLMTSCDMSGISLTLCSVKDPKWLDYLNVPTGAFAWLEHHHHHH | soluble
14 | MGHHHHHHHHHHSSGHIDDDDKHMLEDPMATGDERFYAEHLMPTLQGLLDPESAHRLAVRFTSLGLLPRARFQDSDMLEVRVLGHKFRNPVGIAAGFDKHGEAVDGLYKMGFGFVEIGSVTPKPQEGNPRPRVFRLPEDQAVINRYGFNSHGLSVVEHRLRARQQKQAKLTEDGLPLGVNLGKNKTSVDAAEDYAEGVRVLGPLADYLVVNVSSPNTAGLRSLQGKAELRRLLTKVLQERDGLRRVHRPAVLVKIAPDLTSQDKEDIASVVKELGIDGLIVTNTTVSRPAGLQGALRSETGGLSGKPLRDLSTQTIREMYALTQGRVPIIGVGGVSSGQDALEKIRAGASLVQLYTALTFWGPPVVGKVKRELEALLKEQGFGGVTDAIGADHRR | soluble
15 | MNNQSQVKVGPPLWLLAELTYDCPLHCPYCSNPTELGDTKDELNTEQWLDVLTQARAMGAVQLGFSGGEPLLRKDLEQMVKHSRELGFYTNLITSGIGLTEKRIAKLKVAGLDHIQISFQGADPEMNDIIAGRGNAFEQKFKMAQSVKAQGYPMVLNFVISKQNISQVEDIMRLSCQLNADYVELATAQYYGWAYDNRDHLLPSQQQLIDAEKIVNEFRDKQQGKGPQFIFVTPDYFEVRPKACMNGWGSTFLTIAPDGSALPCHSAKMLPLKFPNVKDKSISDIWQQDFSFNRFRGDSWMPQPCQSCDEKEKDFGGCRCQAFMMTGDMDKTDPVCSKSPDHHLIQEAIERAKHPKNPLLERVNKRSIKDADIVQIKL | not soluble
16 | MVGLADVAVLYSGGKDSNYALYWALKSGLRVRYLVSMVSENEESYMYHTPNVELTSLQARALGIPIIKGFTKGEKEKEVEDLKNVLEGLKVDGIVAGALASRYQKERIENVARELGLKVYTPAWEKDPYQYMLEIIKLGFKVVFVAVSAYGLNESWLGRELNYKNLEELKKLSEKYGIHIAGEGGEFETFVLDMPFFKAKIVIDDAEKFWDGLSGKFIIKRAHLEWK | soluble
17 | MKRLRNKMTTEELAECLGVAKQTVNRWIREKGWKTEKFPGVKGGRARLILVDTQVCEFIQNTPAFHNTPMLMEAEERIAEYAPGARAPAYRQIINAIDNMTDIEQEKVAQFLSREGIRNFLARLDIDESA | not soluble
18 | MVSRLARLARRVGRKLKALTPTPKTPEPPSLPLILDAPVAPGFTTAREVWCAPGFGVVVDAGGQVLGGAARQALGFSPDLAALPGVRVSDGGSRLILPEGAPRLARGAVVAGWGDLRNYAGFVLNTLPALVEASKAGVLADHPLVTPPLTRWQADLLTLAGLASPLINAAPWVVLDEAVLSPPPSPVATHAMLAEVRERVLATPGPASGARPKLYVSRADAMNAVMVDEEGVEIELAALGYTIVRPETSSTRELIGLFREAKVIVAPTGTVLANALFCAADAQIVEIRPPGANGLWVRDLAVLAGATWHGFDAPGEKEAPGAPLDPALPPASAFGWRADAAALLAFLAQRSLEHHHHHH | not soluble
19 | MYVNKQEIIKNIQKLSPKSPAEYIEKDGCFMLTCPENTYPSFFSQFQYSEIPPPGNLIPQNALEISPPTSLEEMGGASLSEYFGIICDDGVWKLTKYPNGITFNKDPPSYTNGSLNGYKTEIFTMNCY | not soluble
20 | MGSDKIHHHHHHMENSQQHTDFRQRLELLIGSEKPYAWAARNGLNKGSFTNMWYKGGVPRIGTAQKIAANSGCRVEWLLYGEGPMQDECAQAHDAPMPAGLPALSPLADADEHEVPAGVQEEFCFIPRYNLKASAGFGTSAAGEQPMFYMAFRRYWVKNYLNASPRNLVVISVKGDSMSGVLEDRDTILVNTAERHPGEGLFVIRIGDDIFVKQLQRLPGGAVQVKSANPLYETFTVDLSRASGEFEVIGRVVWFGRQIA | not soluble
21 | EEATSKGQNLNVEKINGEWFSILLASDKREKIEEHGSMRVFVEHIHVLENSLAFKFHTVIDGECSEIFLVADKTEKAGEYSVMYDGFNTFTILKTDYDNYIMFHLINEKDGKTFQLMELYGRKADLNSDIKEKFVKLCEEHGIIKENIIDLTKTNRCLKARE | soluble
22 | MIRIGVLISGSGTNLQAILDGCREGRIPGRVAVVISDRADAYGLERARRAGVDALHMDPAAYPSRTAFDAALAERLQAYGVDLVCLAGYMRLVRGPMLTAFPNRILNIHPSLLPAFPGLEAQRQALEHGVKVAGCTVHFVTAGVDEGPIILQAAVPVLEGDTVEDLRRRILAEEHRIYPEAIRLFAEGRLVIEGRRVRILDRAEAPRG | soluble
23 | MGSDKIHHHHHHMAKCNAVAGFNALNGVQLNLFTTDELKAIHYATMEVLMDPGIQVSDPEARQIFKENGCEVNEQTNVVKIPEYLVRRALQLAPSRFVLWGRDKKYNTVQEAGGKVHWTCFGTGVKMCKYQEGKYVTVDSVEQDIADIAKLCDWAENIDYFSLPVSARDIAGQGAQDVHETFTPLTNTAKHFHHIDPVGENVEYYRDIVNAYYGGDEEEARKKPIFSMLLCPTSPLELSVNACQVIIKGARFGMPVNVLSMAMSGGSSPVYLAGTLVTHNAEVLAGITLAQLTVPGAKVWYGSSTTTFDLKKGTAPVGSPELGLISASVAKLAQFYGLPAFVAGT | not soluble
24 | MGSDKIHHHHHHMARKRDDAALHLPLPEERQVTAFLQAHPDFLVRHPDLLLSLSPPSRWADDDGVLDMQVFMIDRLRDEVERVRGAAEHLIHTSRSNMSIQTRTHRAVLSILGAESMAELVEAISDDLPALLDVDVATLCFEKSEEALPDLLAPGILTLPGGTVAQIMGGADRDCALTEEMPGDPALFGDGAGLVQSSAVVRLSPGGKSPDGVMALGSRHGRTFHAGQATELITFLARVVEGSVRRFVG | not soluble
